# According to PMC11221535:
# Key:
# Assay in all cases: ITC
# [1] = target: TobE N-terminal docking domain (TobE ^NDD) (Methylorubrum extorquens AM1)
# [2] = target: TobE ^NDD-ACP didomain (Methylorubrum extorquens AM1)
# [3] = target: TobC C-terminal docking domain (TobC ^CDD) (Methylorubrum extorquens AM1)
Kd [1] [µM],stoichiometry N [1],Kd [2] [µM],Kd [3] [µM],stoichiometry N [3],Substance
4,0.8,5.7,,,TobC C-terminal docking domain (TobC ^CDD) (domain or fragment)
769,,,,,TobC ^CDD R2271A (domain or fragment)
,,,3.2,1,TobE N-terminal docking domain (TobE ^NDD) (domain or fragment)
